Non-standard residues stand in square brackets, D forms with d. No end group written: not given here. Cit = NC(=O)NCCC[C@H](N)C(=O)O
What was measured:
[1] = target: T1, Histone 2A citrulline-containing peptide 11 (human, also: biotin label); assay: peptide ELISA, 0.016 ug/well
T1 peptide: LQLAI[Cit]NDEELN
Description: (§1) Biotin and citrulline-containing peptides derived from histone 2A were immobilized on NEUTRAVIDIN®-coated 96-well ELISA plates (0.3 μg/well). CFC-1 and CFC-0 were coated at the same concentration and served as positive and negative controls respectively for specific anti-citrulline reactivity and as coating controls. Non-coated wells were used to test for aspecific binding of the antibodies. […] Detection of bound anti-citrulline antibodies was performed by incubating the wells with rabbit-anti-human-HRP (1:2000) for one hour at RT followed by incubation with TMB substrate. The resulting OD (y-axis) is a measure for antibody binding.
(§2) Ninety-six-well ELISA plates were coated with NEUTRAVIDIN® (0.1 μg/well) by overnight incubation at 4° C. Wells were washed five times with PBS-TWEEN®-20 (PBS-T) and blocked by a one-hour incubation with PBS-T+1% Bovine serum albumin (BSA) at room temperature (RT). After five more washes with PBS-T, wells were incubated for one hour at RT with histone-derived citrulline and biotin-containing peptides (0.3 μg/well). […] Wells were washed five times with PBS-T and incubated with rabbit-anti-human-HRP (1:2000) for one hour at RT followed by five washes with PBS-T and three wash steps with PBS. Wells were incubated for five minutes with TMB substrate before stopping the reaction with 2 M H₂SO₄. Optical density was measured by 450 nm and is a measure for the affinity of the antibodies used.

[2] = target: T2, Histone 2A citrulline-containing peptide 7 (human, also: biotin label); assay: peptide ELISA, 0.016 ug/well
T2 peptide: GNYSE[Cit]VGAGAP
Description: as §1, §2

[3] = target: T3, Histone 2A citrulline-containing peptide 6 (human, also: biotin label); assay: peptide ELISA, 0.016 ug/well
T3 peptide: VHRLL[Cit]KGNYSE
Description: as §1, §2

[4] = target: T4, huFibα XH (human, X at position 15 is citrulline; biotin label); assay: peptide ELISA, 0.0023 ug/well
T4 peptide: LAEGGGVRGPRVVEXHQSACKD
Description: as §1, with “fibrinogen and vimentin” for “histone 2A”
(§3) Biotin-labeled and citrulline-containing fibrinogen and vimentin peptides (Table 5) were also tested for reactivity with the therapeutic antibodies. Peptides were coated on 96-well NEUTRAVIDIN®-ELISA plates.

[5] = target: T5, huFibα XG (human, X at position 8 is citrulline; biotin label); assay: peptide ELISA, 0.0023 ug/well
T5 peptide: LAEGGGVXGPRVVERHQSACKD
Description: as §1, with “fibrinogen and vimentin” for “histone 2A”
as §3

[6] = target: T6, CFC-1; assay: peptide ELISA, 0.0023 ug/well
T6 construct: Positive control for anti-citrulline reactivity; also called cfc1 XG
Description: as §1, with “fibrinogen and vimentin” for “histone 2A”
as §3

[7] = target: T7, msFibα XG (mouse, X at position 8 is citrulline; biotin label); assay: peptide ELISA, 0.0023 ug/well
T7 peptide: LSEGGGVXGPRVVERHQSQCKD
Description: as §1, with “fibrinogen and vimentin” for “histone 2A”
as §3

[8] = target: T8, msFibβ XG (mouse, also: biotin label); assay: peptide ELISA, 0.0023 ug/well
T8 peptide: EPTDSLDA[Cit]GHRPVDRR
Description: as §1, with “fibrinogen and vimentin” for “histone 2A”
as §3

[9] = target: T9, msFibα XH (mouse, X at position 15 is citrulline; biotin label); assay: peptide ELISA, 0.0023 ug/well
T9 peptide: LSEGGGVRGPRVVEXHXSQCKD
Description: as §1, with “fibrinogen and vimentin” for “histone 2A”
as §3

[10] = target: T10, msVim XS/XL (mouse, also: biotin label); assay: peptide ELISA, 0.0023 ug/well
T10 construct: also called mouse vimentin peptide
T10 peptide: YVT[Cit]SSAV[Cit]L[Cit]SSVP
Description: as §1, with “fibrinogen and vimentin” for “histone 2A”
as §3

[11] = target: T4, huFibα XH; assay: peptide ELISA, 0.00064 ug/well
Description: as §1, with “fibrinogen and vimentin” for “histone 2A”
as §3

[12] = target: T5, huFibα XG; assay: peptide ELISA, 0.00064 ug/well
Description: as §1, with “fibrinogen and vimentin” for “histone 2A”
as §3

[13] = target: T6, CFC-1; assay: peptide ELISA, 0.00064 ug/well
Description: as §1, with “fibrinogen and vimentin” for “histone 2A”
as §3

[14] = target: T7, msFibα XG; assay: peptide ELISA, 0.00064 ug/well
Description: as §1, with “fibrinogen and vimentin” for “histone 2A”
as §3

[15] = target: T8, msFibβ XG; assay: peptide ELISA, 0.00064 ug/well
Description: as §1, with “fibrinogen and vimentin” for “histone 2A”
as §3

[16] = target: T9, msFibα XH; assay: peptide ELISA, 0.00064 ug/well
Description: as §1, with “fibrinogen and vimentin” for “histone 2A”
as §3

[17] = target: T10, msVim XS/XL; assay: peptide ELISA, 0.00064 ug/well
Description: as §1, with “fibrinogen and vimentin” for “histone 2A”
as §3

[18] = target: T4, huFibα XH; assay: peptide ELISA, 2 ug/well
Description: as §1, with “fibrinogen and vimentin” for “histone 2A”
as §3

[19] = target: T5, huFibα XG; assay: peptide ELISA, 2 ug/well
Description: as §1, with “fibrinogen and vimentin” for “histone 2A”
as §3

[20] = target: T6, CFC-1; assay: peptide ELISA, 2 ug/well
Description: as §1, with “fibrinogen and vimentin” for “histone 2A”
as §3

[21] = target: T7, msFibα XG; assay: peptide ELISA, 2 ug/well
Description: as §1, with “fibrinogen and vimentin” for “histone 2A”
as §3

[22] = target: T8, msFibβ XG; assay: peptide ELISA, 2 ug/well
Description: as §1, with “fibrinogen and vimentin” for “histone 2A”
as §3

[23] = target: T9, msFibα XH; assay: peptide ELISA, 2 ug/well
Description: as §1, with “fibrinogen and vimentin” for “histone 2A”
as §3

[24] = target: T10, msVim XS/XL; assay: peptide ELISA, 2 ug/well
Description: as §1, with “fibrinogen and vimentin” for “histone 2A”
as §3

B1: RhmAb2.102 (antibody, human IgG1, lambda)
heavy: not shown
light: QSVLTQPPSMSAAPGQKVTISCSGSSSNIGNNYVSWYQQVPGTAPKLLIYDDNKRPSGIPGRFSGSKSATSATLGITGLQAGDEADYYCGSWDDNLSVVLFGGGTKLTVLGQPKAAPSVTLFPPSSEELQANKATLVCLISDFYPGAVTVAWKADSSPVKAGVETTTPSKQSNNKYAASSYLSLTPEQWKSHRSYSCQVTHEGSTVEKTVAPTECS
notes: Human IgG1 lambda; also called Rhm2.102
- OD [1]: 0.069 OD
- OD [2]: 0.061 OD
- OD [3]: 0.075 OD
- OD [4]: 0.123 OD
- OD [5]: 0.125 OD
- OD [6]: 0.506 OD
- OD [7]: 0.125 OD
- OD [8]: 0.12 OD
- OD [9]: 0.085 OD
- OD [10]: 0.142 OD
- OD [11]: 0.124 OD
- OD [12]: 0.125 OD
- OD [13]: 0.345 OD
- OD [14]: 0.116 OD
- OD [15]: 0.133 OD
- OD [16]: 0.088 OD
- OD [17]: 0.154 OD
- OD [18]: 0.116 OD
- OD [19]: 1.51 OD
- OD [20]: 3.97 OD
- OD [21]: 1.9 OD
- OD [22]: 3.15 OD
- OD [23]: 0.091 OD
- OD [24]: 2.77 OD

From patent publication US20170298146A1 (MODIQUEST B V, published 2017)
